Experiment [1] deals with T1, uPAR^1−283 (Homo sapiens, UniProt Q03405).
T1 construct: 10 μg/mL uPAR^1−283 in 10 mM sodium acetate pH 5.0 was covalently immobilized on a CM5 sensor chip; made in house
The experiment can be described thus: SPR binding kinetics of peptides to immobilized uPAR (Biacore T200, single cycle). The note with it: NB = no binding; for kon / koff: uPAR immobilized on CM5 chip, peptide in solution, global fit, ± standard error of fit; for kon: five serial 2-fold dilutions, 10 mM HEPES, 150 mM NaCl, 3 mM EDTA, 0.05% P-20, pH 7.4, 20°C, read-out: kon (association rate constant); for koff: read-out: koff (dissociation rate constant). The procedure: Binding kinetics of the peptides-uPAR interactions were determined with surface plasmon resonance (SPR) on a Biacore T200™ system (Cytiva), as outlined ([10]). In brief; 10 μg/mL uPAR^1−283 in 10 mM sodium acetate pH 5.0 was covalently immobilized on a CM5 sensor chip via amine coupling yielding a surface density of 905-1,333 RU (~26–39 fmol/mm^2) ([11]). Subsequently, we measured the binding kinetics of the various peptides to immobilized uPAR with single cycle protocols in which the peptides were injected as five serial 2-fold dilutions for 200 s with a short dissociation phase in between (100 s). The last analyte injection was followed by a 1,000 s long dissociation phase. In the end of each cycle, two consecutive injections of 0.1 M acetic acid in 0.5 M NaCl regenerated the sensor chip. All experiments were run with a flowrate of 50 μl/min in 10 mM HEPES, 150 mM NaCl, 3 mM EDTA, and 0.05% (v/v) surfactant P-20 at pH 7.4 at 20°C. The kinetic rate constants (kon and koff) as well as the KD (koff/kon) were determined by non-linear regression fitting of the curves to a simple bimolecular interaction model. We applied the BiacoreT200 Evaluation^TM 3.0 software for the global fitting. Additional binding kinetic curves is provided in the Supplementary Material.
(In general: In SPR one partner is held on a chip, and binding of the other changes the refractive index at the surface.)

The target of the next experiment is uPAR·uPA interaction (Homo sapiens, UniProt Q03405). The experiment can be described thus: SPR competition of the uPAR·uPA interaction (uPAR in solution, immobilized pro-uPA^S356A). Format: binding. The note with it: 2 nM uPAR incubated with 3-fold dilution series of peptide (0.076 nM to 1.5 μM), pH 7.4, 20°C, four-parameter dose-response fit, n = 3, ± standard error. The procedure: The IC50-values of RESCA-AE105, NOTA-AE105, AE105 (Asp-Cha-Phe-(D)Ser-(D)Arg-Tyr-Leu-Trp-Ser) and AE105-mut (Asp-Cha-Glu-(D)Ser-(D)Arg-Tyr-Leu-Glu-Ser) on the uPAR·uPA interaction were determined with SPR on a Biacore 3000™ instrument or a Biacore T200™ system (Cytiva). The set-up is overall as described previously ([12]). In brief, we obtained a high surface density of pro-uPA^S356A by immobilizing >5,000 RU (~ 0.1 pmol pro-uPA/mm^2) on a CM5 sensor chip. […] For the analysis, we incubated 2 nM uPAR with a 3-fold dilution series of the peptides (ranging from 0.076 nM to 1.5 μM) and the νobs was measured for 300 s at 20°C with a flow rate of 50 μL/min. The running buffer contained 10 mM HEPES, 150 mM NaCl, 3 mM EDTA and 0.05 % (v/v) surfactant P20, pH 7.4. The sensor chip was regenerated with two consecutive injections of 0.1 M acetic acid, 0.5 M NaCl in the end of each cycle. In parallel, we measured a standard curve (2-fold dilution of uPAR covering 0.06–2 nM). This standard curve included one repeated concentration point at the end to validate the biological integrity of the sensor chip.
Sequence of uPAR·uPA interaction (Q03405 23-305 limits assumed): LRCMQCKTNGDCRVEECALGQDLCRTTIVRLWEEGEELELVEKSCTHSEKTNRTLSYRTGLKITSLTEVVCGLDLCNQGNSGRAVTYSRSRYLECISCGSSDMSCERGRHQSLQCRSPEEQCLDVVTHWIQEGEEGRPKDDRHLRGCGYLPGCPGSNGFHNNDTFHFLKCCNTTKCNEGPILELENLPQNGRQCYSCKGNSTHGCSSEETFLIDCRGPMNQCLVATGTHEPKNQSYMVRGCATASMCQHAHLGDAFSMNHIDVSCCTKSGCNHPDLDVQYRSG

Experiment [2] concerns the target T2, uPAR^1−283 (UniProt Q03405-1 23-305). Put plainly: SPR; competition in solution: 2 nM uPAR incubated with 3-fold dilution series of the peptides (0.076 nM to 1.5 μM), free uPAR read by its association rate on pro-uPA^S356A immobilised at high density (>5,000 RU) on a CM5 chip; 10 mM HEPES, 150 mM NaCl, 3 mM EDTA, 0.05% P20, pH 7.4, 20°C; four-parameter dose-response fit, n = 3. Particulars: both partners purified.

Experiment [3] deals with T2, uPAR^1−283. Put plainly: SPR; uPAR^1−283 immobilised on a CM5 chip by amine coupling (905-1,333 RU); peptides injected in single cycle protocols, five serial 2-fold dilutions; 10 mM HEPES, 150 mM NaCl, 3 mM EDTA, 0.05% P-20, pH 7.4, 20°C; Biacore T200; simple bimolecular model, global fit. The note with it: both partners purified.

Where a SMILES comes first, the peptide text is derived from it. Where no end group is shown, it is not given here. [ ]: non-standard residue; d: D form. Cha = N[C@@H](CC1CCCCC1)C(=O)O

T1 sequence (Q03405 23-305): as the sequence (Q03405 23-305 limits assumed) above
T2 sequence (Q03405 23-305): as the sequence (Q03405 23-305 limits assumed) above

What is called kon is the rate constant with which the complex forms. The term koff denotes the first-order rate constant of dissociation. For `CC(C)C[C@H](NC(=O)[C@H](Cc1ccc(O)cc1)NC(=O)[C@@H](CCCNC(=N)N)NC(=O)[C@@H](CO)NC(=O)[C@H](Cc1ccccc1)NC(=O)[C@H](CC1CCCCC1)NC(=O)[C@@H](N)CC(=O)O)C(=O)N[C@@H](Cc1c[nH]c2ccccc12)C(=O)N[C@@H](CO)C(=O)O` [AE105], at uPAR^1−283 [1], the kon came out at 1.01e+06 ± 3000 M⁻¹ s⁻¹. Further, the off-rate (koff) on uPAR^1−283 [1] (pH 7.4, 20°C) was found to be 0.00413 ± 1e-05 s⁻¹.
What is called IC50 is the concentration needed to halve the response being measured. Higher therefore signals weaker potency in that assay. For `CC(C)C[C@H](NC(=O)[C@H](Cc1ccc(O)cc1)NC(=O)[C@@H](CCCNC(=N)N)NC(=O)[C@@H](CO)NC(=O)[C@H](CCC(=O)O)NC(=O)[C@H](CC1CCCCC1)NC(=O)[C@@H](N)CC(=O)O)C(=O)N[C@@H](CCC(=O)O)C(=O)N[C@@H](CO)C(=O)O` [AE105mut] (H-D[Cha]E[dS][dR]YLES-OH), the Kd on uPAR^1−283 [1] (immobilized uPAR, pH 7.4, 20°C, simple bimolecular interaction model, read-out: KD (equilibrium dissociation constant, koff/kon)) is over 200 nM. Also, the IC50 on uPAR·uPA interaction is over 1000 nM.
Regarding `CC(C)C[C@H](NC(=O)[C@H](Cc1ccc(O)cc1)NC(=O)[C@@H](CCCNC(=N)N)NC(=O)[C@@H](CO)NC(=O)[C@H](Cc1ccccc1)NC(=O)[C@H](CC1CCCCC1)NC(=O)[C@H](CC(=O)O)NC(=O)c1ccc(CN(CC(=O)O)[C@@H]2CCCC[C@H]2N(CC(=O)O)CC(=O)O)cc1)C(=O)N[C@@H](Cc1c[nH]c2ccccc12)C(=O)N[C@@H](CO)C(=O)O` [RESCA1-AE105], on uPAR^1−283 [1], the on-rate (kon) was found to be 292000 ± 1000 M⁻¹ s⁻¹. Moreover, the koff at uPAR^1−283 [1] (pH 7.4, 20°C) stood at 0.014 ± 2e-05 s⁻¹.

B1: RESCA1-AE105 (peptide)
chain: DXFSRYLWS
modifications: RESCA1 chelator conjugated at the N-terminal; Cha (cyclohexylalanine) at position 2; (D)Ser at position 4; (D)Arg at position 5
Molecule B1 came in with an IC50 with uPAR^1−283 [2] of 76.7 nM. The molecule further came in with a Kd with uPAR^1−283 [3] of 48 nM.

B2: AE105 (peptide)
chain: DXFSRYLWS
modifications: Cha (cyclohexylalanine) at position 2; (D)Ser at position 4; (D)Arg at position 5
The molecule B2 yielded an IC50 with uPAR^1−283 [2] of 8.86 nM. In the experiment with uPAR^1−283 [3], this molecule gave a Kd of 4.1 nM.

B3: NOTA-AE105 (peptide)
chain: DXFSRYLWS
modifications: NOTA chelator conjugated at the N-terminal; Cha (cyclohexylalanine) at position 2; (D)Ser at position 4; (D)Arg at position 5
On to B3, for which, in the experiment with uPAR^1−283 [3], the koff is 0.0125 s⁻¹ and the kon was determined as 224000 M⁻¹ s⁻¹.
Regarding D[Cha]E[dS][dR]YLES [AE105-mut], in the experiment with uPAR^1−283 [2], the half-inhibitory concentration (IC50) is over 1000 nM.

The values are drawn from PMC11440976, “Optimization and Evaluation of Al^18F Labeling Using a NOTA—or RESCA1-Conjugated AE105 Peptide Antagonist of uPAR” (Frontiers in Nuclear Medicine, 2021).
